Laboratory results taken from doi:10.1101/2024.05.08.592561 (bioRxiv, 2024).

What was measured:
ParT = biological target: T1, ParT (Streptomyces coelicolor A3(2), plasmid …, UniProt Q8VWE5 1-325); assay: BLI
T1 sequence: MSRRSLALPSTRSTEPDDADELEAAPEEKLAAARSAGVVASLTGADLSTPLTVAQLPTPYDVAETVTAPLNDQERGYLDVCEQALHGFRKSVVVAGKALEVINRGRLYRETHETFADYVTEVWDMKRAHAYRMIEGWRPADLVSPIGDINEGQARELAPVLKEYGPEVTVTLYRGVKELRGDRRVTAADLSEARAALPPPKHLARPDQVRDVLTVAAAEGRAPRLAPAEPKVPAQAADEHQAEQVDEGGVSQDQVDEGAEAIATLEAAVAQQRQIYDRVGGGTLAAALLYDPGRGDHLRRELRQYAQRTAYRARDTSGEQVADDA

mass photometry = biological target: the molecule itself; assay: mass photometry

B1: 40-bp parS duplex (dsDNA)
DNA 1: GGCCGACCTCGTGTCTCCAATTGGAGACATCAACGAGGGC
DNA 2: GCCCTCGTTGATGTCTCCAATTGGAGACACGAGGTCGGCC
Q: How did the Kd (ParT) turn out when B1 was run?
A: Its Kd is 680 ± 200 nM.

B2: ParT-His6 (wild type) (natural protein)
chain: MSRRSLALPSTRSTEPDDADELEAAPEEKLAAARSAGVVASLTGADLSTPLTVAQLPTPYDVAETVTAPLNDQERGYLDVCEQALHGFRKSVVVAGKALEVINRGRLYRETHETFADYVTEVWDMKRAHAYRMIEGWRPADLVSPIGDINEGQARELAPVLKEYGPEVTVTLYRGVKELRGDRRVTAADLSEARAALPPPKHLARPDQVRDVLTVAAAEGRAPRLAPAEPKVPAQAADEHQAEQVDEGGVSQDQVDEGAEAIATLEAAVAQQRQIYDRVGGGTLAAALLYDPGRGDHLRRELRQYAQRTAYRARDTSGEQVADDA
Q: B2 was tested. Which “stoichiometry N” value (mass photometry) did it give?
A: The value was 2.

B3: 40-bp scrambled parS duplex (dsDNA)
DNA 1: ATCGGGCACCTTAGGGCAATCGTAAGTTCGGCGCACGACC
DNA 2: GGTCGTGCGCCGAACTTACGATTGCCCTAAGGTGCCCGAT
Q: Does B3 bind (ParT)?
A: Result: no binding
